Reference: paper PMC4412286

Molecular target: phosphoinositol 3-kinase (PI3-kinase), p85 subunit (human (endogenous in AGS)) (UniProt P27986)
Sequence of UniProt P27986 (P27986 whole entry): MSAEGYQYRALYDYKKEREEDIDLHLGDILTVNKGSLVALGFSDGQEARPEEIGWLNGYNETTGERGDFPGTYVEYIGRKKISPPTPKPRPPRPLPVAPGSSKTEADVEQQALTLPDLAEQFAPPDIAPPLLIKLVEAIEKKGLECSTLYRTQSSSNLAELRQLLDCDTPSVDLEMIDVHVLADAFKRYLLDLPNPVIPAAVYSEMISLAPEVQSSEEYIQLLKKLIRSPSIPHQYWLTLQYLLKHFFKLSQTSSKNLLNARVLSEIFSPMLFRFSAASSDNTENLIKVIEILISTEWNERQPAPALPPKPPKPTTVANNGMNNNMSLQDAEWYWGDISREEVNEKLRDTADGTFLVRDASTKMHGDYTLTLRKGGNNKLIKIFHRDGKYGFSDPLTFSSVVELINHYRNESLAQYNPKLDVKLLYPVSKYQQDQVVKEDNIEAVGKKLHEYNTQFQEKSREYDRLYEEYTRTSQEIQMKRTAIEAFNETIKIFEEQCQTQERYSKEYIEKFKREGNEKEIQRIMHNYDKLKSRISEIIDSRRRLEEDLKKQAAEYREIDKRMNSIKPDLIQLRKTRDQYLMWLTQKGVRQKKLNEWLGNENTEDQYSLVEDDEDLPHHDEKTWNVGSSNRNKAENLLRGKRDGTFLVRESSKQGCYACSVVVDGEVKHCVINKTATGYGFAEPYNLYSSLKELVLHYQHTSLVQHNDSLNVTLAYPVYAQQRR

CagA of H. pylori strain 147C with EPIYA B-TPM, HA fusion (natural protein)
phosphorylation of AKT at threonine 308 in AGS cells after 24 h co-culture with the EPIYA isogenic strain (immunoblot, fold): 1.7 fold

CagA of H. pylori strain 147C with EPIYT B-TPM (wild-type 147C sequence), HA fusion (natural protein)
phosphorylation of AKT at threonine 308 in AGS cells after 24 h co-culture with the EPIYT isogenic strain (immunoblot, fold): 2.4 fold
